Like-named read-outs stand apart in the source and are kept apart here.
Columns and labels:
female mouse = settings: Zhao Guoqiang et al., 1984; cited from earlier work
ITP model mice [1] = type: in vivo, BALB/C mice; settings: 5 mg/(kg·d) intragastric, 14 days; end of experiment
Description: (§1) Health BALB/C mice (body weight 18˜22 g) are randomly divided into six groups with 12 mice for each group:
Blank group, Model group, Prednisone Acetate Group, Dencichine (high dose, middle dose, and low dose) groups.
Modeling method: blood was taken from orbital vein of BALB/C Mice, followed by EDTA-Na2 Anticoagulation, and then platelets are separated and washed. The prepared platelet suspension solution was mixed uniformly with equal amount of complete Freund's adjuvant and incomplete Freund's adjuvant respectively. In the first week, antigen containing complete Freund's adjuvant is subcutaneously injected into hind paw, back and groin of the guinea pig. Injections are done for 4 times in total, with 5 spots for each injection and 100 μl for each spot. In the 6th week, non-anticoagulated whole blood was taken from the guinea pigs, and was centrifuged for 10 min under 3000 r/min to produce a supernate, which is the anti-mouse platelet serum (GP-APS) of the guinea pigs. The supernate was placed in a water bath (56° C.) for 30 min for complement inactivation, and then the inactivated supernate was diluted with normal saline, followed by test of antibody titers by agar diffusion method, and finally was stored in a refrigerator at −20° C. for later use.
(§2) Except the normal group, the mice of the remain five groups are injected with anti-mouse platelet serum (APS) of the guinea pig with a dose of 100 μl/20 g body weight, via intraperitoneal injection, on the 1st, 3rd, 5th, 7th, 9th, 11th and 13th day of the experiment.
(§3) The mice of each group are given intragastric administration from the first day. […] The mice of the prednisone acetate group are given intragastric administration of suspension of prednisone acetate at 5 mg/(kg·d). The mice of other groups are given intragastric administration of same volumetric of normal saline at 0.2 ml/20 g body weight. Intragastric administration for once each day, and continuous administration for 14 days.
Observation of the Subcutaneous Purpura:
Class I, minor bleeding are found at injection sites, and hemorrhagic spots are interspersed at other sites;
Class II, overt bleeding are found at injection sites, and ecchymosis and petechiae are found at other sites;

ITP model mice [2] = type: in vivo, BALB/C mice; settings: 5 mg/kg intragastric
Procedure: as §1, §2
The mice of each group are given intragastric administration from the first day. The mice of the dencichine high dose, middle-dose and low dose groups are given intragastric administration at […] respectively. The mice of the prednisone acetate group are given intragastric administration of suspension of prednisone acetate at 5 mg/(kg·d). The mice of other groups are given intragastric administration of same volumetric of normal saline at 0.2 ml/20 g body weight. Intragastric administration for once each day, and continuous administration for 14 days.
20 μl Blood was collected from orbital veins of each mouse of each group before Modeling and on 14th test day respectively, and dropped into anticoagulative tubes, then platelet count was detected by an automated blood analyzers.

[3] = type: in vivo, BALB/C mice; settings: 5 mg/(kg·d) intragastric
Procedure: as §1, §2, §3
The weights of mice of each group are respectively measured before modeling, on 7th test day, and on 14th test day.

[4] = Body weight of rats suffering thrombopenia induced by carboplatin; type: in vivo, Wistar rats; settings: for body weight: 260 μg/kg s.c., carboplatin model
Procedure: (§4) 81 rats are prepared and randomly divided into eight groups: • blank control group, • high-dose group A (4 mg/kg, intraperitoneal injection, non modeling), • model group (40 mg/kg, tail vein injection), • interleukin-11 group (260 μg/kg, subcutaneous injection), • high dose group B (4 mg/kg, intraperitoneal injection, modeling), • high dose group (4 mg/kg, intraperitoneal injection), • middle dose group (1 mg/kg, intraperitoneal injection), and • low dose group (0.25 mg/kg, intraperitoneal injection),
(§5) wherein, the Model group has 11 rats, and the other groups has 10 rats respectively. Before the experiment, the animals are asked to adapt the environment for 2 days, and then blood is taken from their tails for detecting hematological index.
(§6) After administration for 10 days, blood is taken from tails of rats from blank control group, high-dose group A, and positive drug group respectively for detecting hematological index.
(§7) Thereafter, all animals, except for those of blank group and high-dose group A, are individually injected with carboplatin (40 mg/kg) for modeling, and followed by successive administration for 15 days. During these 15 days, the rats of high-dose group A and high dose group B are stopped from administration, and taken blood from the tail on 5th day, 10th day and 15th day after the modeling respectively for detecting hematological indices. After 15th day of modeling, carboplatin (40 mg/kg) is injected again for a second modeling, and all the groups take successive administration according to the foregoing method, once a day for successive 10 days. Before each hematological indices detection, animals are weighed respectively. Taking the tails' blood of rats on 5th day after the second injection of carboplatin for detecting hematological indices, and taking the tails' blood of rats on 10th day after the second injection of carboplatin for detecting the indices of hematology, reticulocytes and coagulation; and weighing animals and killing them; and weighing liver, thymus, spleen and adrenal gland taken from the dead rats, and calculating out viscera indices; further taking out marrow for doing pathological examination.

[5] = tested on: rats with thrombocytopenia caused by carboplatin; experiment: Platelet count of rats with thrombocytopenia caused by carboplatin, different prophylactic administration time; type: in vivo, rat
[6] = tested on: rats suffering thrombopenia induced by carboplatin; experiment: Platelet count of rats suffering thrombopenia induced by multiple injections of carboplatin; type: in vivo, Wistar rats; settings: 260 μg/kg s.c., carboplatin model
Procedure: as §4, §5, §6, §7

[7] = Organ index of rats suffering thrombopenia induced by carboplatin; type: in vivo, Wistar rats
Procedure: as §4, §7

[8] = 5th day after first injection of carboplatin
[9] = 5th day after second injection of carboplatin
[10] = 10th day after first injection of carboplatin
[11] = 10th day after second injection of carboplatin
[12] = 15th day after first injection of carboplatin
[13] = prophylactic administration for 10 days
[14] = 260 μg/kg s.c., carboplatin model

## N[C@H](CNC(=O)C(=O)O)C(=O)O [β-N-oxalyl-D-α, β-diaminopropionic acid, reference compound]
Female mouse
  effect on the hemostasis and increase of platelet count: significant effect

## CC(=O)OCC(=O)[C@@]1(O)CC[C@H]2[C@@H]3CCC4=CC(=O)C=C[C@]4(C)[C@H]3C(=O)C[C@@]21C [Prednisone acetate, Prednisone Acetate, reference compound]
ITP model mice [1]
  Subcutaneous purpura, bleeding degree +: 6 number of mice
  Subcutaneous purpura, bleeding degree ++: 2 number of mice
  Subcutaneous purpura, bleeding degree +++: 0 number of mice
  Subcutaneous purpura, bleeding degree −: 0 number of mice
ITP model mice [2]; Before Modeling
  platelet count: 756.9 ± 130.1 ×10^9/L
ITP model mice [2]; Day 14
  platelet count: 579.0 ± 70.7 ×10^9/L
[3]; Day 0
  body weight: 19.8 ± 2.1 g
[3]; Day 7
  body weight: 19.5 ± 1.8 g
[3]; Day 14
  body weight: 20.6 ± 1.7 g

B1: Interleukin-11: Recombinant human interleukin-11 for injection, sterile lyophilized preparation, Qilu Pharmaceutical; positive drug (protein, UniProt P20809 22-199, looked up)
Interleukin-11: PGPPPGPPRVSPDPRAELDSTVLLTRSLLADTRQLAAQLRDKFPADGDHNLDSLPTLAMSAGALGALQLPGVLTRLRADLLSYLRHVQWLRRAGGSSLKTLEPELGTLQARLDRLLRRLQLLMSRLALPQPPPDPPAPPLAPPSSAWGGIRAAHAILGGLHLTLDWAVRGLLLLKTRL
[4]; [8]
  body weight: 267.6 ± 41.79 g
[4]; [9]
  body weight: 294.6 ± 47.61 g
[4]; [10]
  body weight: 287.1 ± 41.57 g
[4]; [11]
  body weight: 291.7 ± 52.46 g
[4]; [12]
  body weight: 298.3 ± 44.22 g
[4]; before experiment
  body weight: 186.7 ± 9.63 g
[4]; [13]
  body weight: 268.8 ± 32.65 g
[4]; 280 μg/kg subcutaneous injection, beginning of the experiment
  body weight and state: obvious body weight loss
[5]; prophylactic administration for 3 days
  platelet count compared with that of model group: no significant difference
[5]; prophylactic administration for 3 days, after prophylactic administration
  platelet count: 820.7 ± 155.13 ×10^9/L
[5]; prophylactic administration for 3 days, initial value
  platelet count: 736.3 ± 175.56 ×10^9/L
[5]; prophylactic administration for 3 days, injection of carboplatin for 10 days
  platelet count: 88.5 ± 51.49 ×10^9/L
[5]; prophylactic administration for 5 days and 7 days
  platelet count compared with that of model group: increase the platelet count
[5]; prophylactic administration for 5 days, after prophylactic administration
  platelet count: 759.5 ± 145.34 ×10^9/L
[5]; prophylactic administration for 5 days, initial value
  platelet count: 724.0 ± 178.87 ×10^9/L
[5]; prophylactic administration for 5 days, injection of carboplatin for 10 days
  platelet count: 178.3 ± 57.08 ×10^9/L
[5]; prophylactic administration for 7 days, after prophylactic administration
  platelet count: 860.5 ± 113.92 ×10^9/L
[5]; prophylactic administration for 7 days, initial value
  platelet count: 732.3 ± 197.06 ×10^9/L
[5]; prophylactic administration for 7 days, injection of carboplatin for 10 days
  platelet count: 179.5 ± 26.76 ×10^9/L
[6]; [8]
  platelet count: 564.0 ± 126.1 ×10^9/L
[6]; [9]
  platelet count: 953.7 ± 265.8 ×10^9/L
[6]; [10]
  platelet count: 234.6 ± 77.9 ×10^9/L
[6]; [11]
  platelet count: 290.7 ± 180.9 ×10^9/L
[6]; [12]
  platelet count: 1183.3 ± 92.5 ×10^9/L
[6]; before experiment
  platelet count: 625.4 ± 124.92 ×10^9/L
[6]; [13]
  platelet count: 761.6 ± 226.76 ×10^9/L
[7]; [14]
  organ index, Adrenal gland: 0.04 ± 0.01 g/100 g body weight
  organ index, Liver: 4.10 ± 0.30 g/100 g body weight
  organ index, Spleen: 0.39 ± 0.05 g/100 g body weight
  organ index, Thymus gland: 0.14 ± 0.05 g/100 g body weight
[7]; interleukin-11 group
  index of livers, spleens, suprarenal glands compared with the blank control group: obvious increases

From US9526713B2, “Use of dencichine in preparation of drug for treating thrombocytopenia” (KUNMING SHENGHUO PHARMACEUTICAL (GROUP) CO., LTD., priority 2013, dated 2016)
